T1: His9-hMSR1 (human MSR1 extracellular domain) (Homo sapiens, UniProt P21757)
T1 construct: human MSR1 extracellular domain expressed with a N-terminal nonahistidine tag; His9 (nonahistidine) (N); purchased R&D Systems 2708-MS
T1 sequence (P21757 77-451 limits assumed): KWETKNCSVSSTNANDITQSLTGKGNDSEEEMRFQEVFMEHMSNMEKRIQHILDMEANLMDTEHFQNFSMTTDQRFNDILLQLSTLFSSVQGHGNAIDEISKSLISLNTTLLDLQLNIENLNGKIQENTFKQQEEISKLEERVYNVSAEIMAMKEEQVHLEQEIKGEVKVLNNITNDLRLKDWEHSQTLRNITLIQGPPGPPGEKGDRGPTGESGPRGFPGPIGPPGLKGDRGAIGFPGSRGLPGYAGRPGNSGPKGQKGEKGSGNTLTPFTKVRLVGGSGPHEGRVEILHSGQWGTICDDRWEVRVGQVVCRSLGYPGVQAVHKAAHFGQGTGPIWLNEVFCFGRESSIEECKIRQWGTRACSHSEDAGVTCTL

T2: PMA-treated THP-1 cells (endogenously expressed human MSR1) (Homo sapiens, UniProt P21757)
T2 construct: endogenous in cells; host or cells: THP-1 cells differentiated with PMA
T2 sequence (P21757 1-451): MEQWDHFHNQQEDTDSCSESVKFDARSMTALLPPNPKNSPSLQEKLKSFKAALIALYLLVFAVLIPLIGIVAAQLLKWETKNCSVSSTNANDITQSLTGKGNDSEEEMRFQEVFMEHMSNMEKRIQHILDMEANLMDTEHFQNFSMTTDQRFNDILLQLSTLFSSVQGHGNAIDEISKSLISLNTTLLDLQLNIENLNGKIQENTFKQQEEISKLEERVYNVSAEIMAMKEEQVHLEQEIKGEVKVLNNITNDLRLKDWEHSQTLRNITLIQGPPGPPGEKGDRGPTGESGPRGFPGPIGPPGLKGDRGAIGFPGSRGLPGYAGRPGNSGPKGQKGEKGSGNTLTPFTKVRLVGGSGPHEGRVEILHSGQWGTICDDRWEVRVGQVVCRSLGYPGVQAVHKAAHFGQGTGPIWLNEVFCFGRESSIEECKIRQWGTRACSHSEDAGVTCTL

T3: MSR1 on differentiated THP-1 cells (Homo sapiens, UniProt P21757)
T3 construct: endogenous in cells; host or cells: THP-1 cells differentiated with PMA
T3 sequence (P21757 1-451): T2 sequence (P21757 1-451)

B1: H1H27729P-N297Q: anti-MSR1 antibody "made with an N297Q single point mutation in human Fcγ portion" (antibody, V domains shown)
VH: QVQLVESGGGLVKPGGSLRLSCAASGFIFSDYYMSWIRQAPGKGLEWVSYISSSGTTIYGDSVKGRFTMSRDNAKNSLYLQMNSLRAEDTAVYYCARNYALFDYWGQGTLVTVSS
VL: DIQMTQSPSSLSASVGDRVTITCQASQDISKYLNWYQQKPGKAPKLLIYYTSNLETGVPSRFSGSGSGTDFTFTISSLQPEDIATYYCHQSDYLPFTFGPGTKVDIKR
B2: H1H27739P-N297Q: anti-MSR1 antibody "made with an N297Q single point mutation in human Fcγ portion" (antibody, V domains shown)
VH: EVQLVESGGGLVQPGGSLRLSCTASGFTFSSYAMSWVRQAPGKGLEWVSAISGTGSSTYFTDSVKGRFAISRDNSKNTLYLQMNSLRAEDTAVYYCAKDGEWLSTVTLFDYWGQGTLVTVSS
VL: EIVMTQSPATLSVSPGERATLSCRASQSVSSNLAWYQQKPGQAPRLLIYGASTRATGIPARFSGSGSGTDFTLTISSLQSEDFALYYCQQYFIWPPHPTFGPGTKVDIKR
B3: H1H21231N-N297Q: modified version of "21231N (H1H21231N-N297Q) anti-MSR1 antibodies" with "a N297Q single point mutation" (antibody, V domains shown)
VH: EVQLVESGGGLVQPGGSLRLSCAASGFTFSDHYMDWVRQAPGKGLEWVGRTRNKANSHTTEYTASVTGRFTISRDDSRNSLYLQMNSLKTEDTAVYYCVRAGIIGTLFDYWGQGTLVTVSS
VL: DIQMTQFPSSLSASVGDRVTITCRASQSISSFLNWFQQKPGKAPKFLIYAASSLQSGVPSRFSGSGSGTDFTLTISSLQPEDFATYYCQQSYSSPPITFGQGTRLEIKR
B4: H1H27747P-N297Q (antibody, V domains shown)
VH: QVQLVESGGAVVQPGRSLRLSCAASGFTFSYYGMHWVRQAPGKGLEWVAVISYDGSKKYYADSVKGRFTISRDNSKNTLYLQMNSLRAEDTAVYYCAKDLTVDFYYGMDVWGQGTTVTVSS
VL: DIQMTQSPSSVSASVGDRVTITCRASQGISSWLAWYQQKPGKAPKLLIYATSSLQSGAPSRFSGSGSGTDFTLTISSLQPEDFATYFCQQANSFPYTFGQGTKLEIKR
B5: H1H21231N: "anti-MSR1 antibodies ... (21227N, 21231N, 21234N) were produced with the original human Fcγ portion"; "H1H" = human IgG1 Fc (antibody, V domains shown)
VH: B3 VH
VL: B3 VL
modifications: human IgG1 Fc
notes: "anti-MSR1 antibodies ; (21227N, 21231N, 21234N) were produced with the original human Fcγ portion"; "H1H" = human IgG1 Fc

biological target: T1, His9-hMSR1 (human MSR1 extracellular domain); test: Biacore surface plasmon resonance binding kinetics of anti-MSR1 mAbs, antibody-capture format; settings: 25° C.; analyte His9-hMSR1; * = no dissociation observed, kd manually fixed at 1.00E−05; NB = no binding observed
Method: (§1) Binding affinities and kinetic constants of human anti-MSR1 antibodies for different MSR1 reagents were determined by real-time surface plasmon resonance (Biacore 4000). All binding studies were performed in 10 mM HEPES, 150 mM NaCl, 3 mM EDTA, and 0.05% v/v Surfactant Tween-20, pH 7.4 (HBS-ET) running buffer at 25° C. and 37° C.
(§2) The association rate (ka) and dissociation rate (kd) were determined by fitting the real-time binding sensorgrams to a 1:1 binding model with mass transport limitation using Scrubber 2.0c curve-fitting software. Binding dissociation equilibrium constant (KD) and dissociative half-life (t½) were calculated from the kinetic rates as: […]

Row | Molecule | kd
1 | B1 | 0.00107 s⁻¹
2 | B2 | 0.00103 s⁻¹
3 | B3 | 5.88e-05 s⁻¹
4 | B4 | 0.000652 s⁻¹
5 | B5 | 1.00E−05* s^−1

same assay, conditions: 25° C.; analyte His9-hMSR1; antibody-capture format; NB = no binding observed

Row | Molecule | ka [M⁻¹ s⁻¹]
6 | B1 | 197000
7 | B2 | 375000
8 | B3 | 399000
9 | B4 | 243000
10 | B5 | 477000

same assay, conditions: 25° C.; analyte His9-hMSR1; calculated from kinetic rates; NB = no binding observed

Row | Molecule | Kd [nM]
11 | B3 | 0.147
12 | B5 | 0.021

same assay, conditions: 25° C.; analyte His9-hMSR1; dissociative half-life; NB = no binding observed

Row | Molecule | t½ [h]
13 | B3 | 3.27
14 | B5 | 19.25

same assay, conditions: 37° C.; analyte His9-hMSR1; * = no dissociation observed, kd manually fixed at 1.00E−05; NB = no binding observed

Row | Molecule | kd [s⁻¹]
15 | B1 | 0.00204
16 | B2 | 0.00288
17 | B3 | 0.000115
18 | B4 | 0.00276
19 | B5 | 9.09e-05

same assay, conditions: 37° C.; analyte His9-hMSR1; antibody-capture format; NB = no binding observed

Row | Molecule | ka [M⁻¹ s⁻¹]
20 | B1 | 239000
21 | B2 | 776000
22 | B3 | 534000
23 | B4 | 513000
24 | B5 | 702000

same assay, conditions: 37° C.; analyte His9-hMSR1; calculated from kinetic rates; NB = no binding observed

Row | Molecule | Kd [nM]
25 | B3 | 0.215
26 | B5 | 0.13

same assay, conditions: 37° C.; analyte His9-hMSR1; dissociative half-life; NB = no binding observed

Row | Molecule | t½ [h]
27 | B3 | 1.68
28 | B5 | 2.12

biological target: HMM-mfMSR1 (monkey MSR1 extracellular domain); test: as above; settings: 25° C.; analyte HMM-mfMSR1; * = no dissociation observed, kd manually fixed at 1.00E−05; NB = no binding observed
Sequence (as listed by the source): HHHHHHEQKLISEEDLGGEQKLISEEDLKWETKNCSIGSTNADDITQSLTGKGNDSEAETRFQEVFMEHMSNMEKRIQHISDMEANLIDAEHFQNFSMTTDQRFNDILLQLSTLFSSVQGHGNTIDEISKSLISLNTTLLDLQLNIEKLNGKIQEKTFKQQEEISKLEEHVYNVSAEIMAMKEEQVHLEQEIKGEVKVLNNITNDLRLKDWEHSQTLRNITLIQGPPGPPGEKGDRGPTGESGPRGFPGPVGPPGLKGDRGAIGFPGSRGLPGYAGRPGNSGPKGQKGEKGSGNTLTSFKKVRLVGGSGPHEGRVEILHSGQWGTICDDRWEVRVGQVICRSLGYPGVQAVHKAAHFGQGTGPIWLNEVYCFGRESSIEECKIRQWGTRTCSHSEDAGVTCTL
Method: as §1, §2

Row | Molecule | kd [s⁻¹]
29 | B1 | 0.00212
30 | B2 | 0.000144
31 | B3 | 9.03e-05
32 | B4 | 0.000874
33 | B5 | 6.39e-05

same assay, conditions: 25° C.; analyte HMM-mfMSR1; antibody-capture format; NB = no binding observed

Row | Molecule | ka [M⁻¹ s⁻¹]
34 | B1 | 269000
35 | B2 | 352000
36 | B3 | 240000
37 | B4 | 231000
38 | B5 | 274000

same assay, conditions: 25° C.; analyte HMM-mfMSR1; calculated from kinetic rates; NB = no binding observed

Row | Molecule | Kd [nM]
39 | B3 | 0.376
40 | B5 | 0.233

same assay, conditions: 25° C.; analyte HMM-mfMSR1; dissociative half-life; NB = no binding observed

Row | Molecule | t½ [h]
41 | B3 | 2.13
42 | B5 | 3.02

same assay, conditions: 37° C.; analyte HMM-mfMSR1; * = no dissociation observed, kd manually fixed at 1.00E−05; NB = no binding observed

Row | Molecule | kd [s⁻¹]
43 | B1 | 0.00349
44 | B2 | 0.000842
45 | B3 | 0.000109
46 | B4 | 0.00228
47 | B5 | 7.82e-05

same assay, conditions: 37° C.; analyte HMM-mfMSR1; antibody-capture format; NB = no binding observed

Row | Molecule | ka [M⁻¹ s⁻¹]
48 | B1 | 407000
49 | B2 | 2.25e+06
50 | B3 | 587000
51 | B4 | 657000
52 | B5 | 712000

same assay, conditions: 37° C.; analyte HMM-mfMSR1; calculated from kinetic rates; NB = no binding observed

Row | Molecule | Kd [nM]
53 | B3 | 0.186
54 | B5 | 0.11

same assay, conditions: 37° C.; analyte HMM-mfMSR1; dissociative half-life; NB = no binding observed

Row | Molecule | t½ [h]
55 | B3 | 1.77
56 | B5 | 2.47

biological target: T2, PMA-treated THP-1 cells (endogenously expressed human MSR1); test: Electrochemiluminescence antibody binding assay on MSR1-expressing cells; type: cell-based; settings: not given

Row | Molecule | Ratio of 11 nM Antibody Binding Signal (RLU) to isotype control, PMA-treated THP-1
57 | B2 | 9
58 | B5 | 42

biological target: T3, MSR1 on differentiated THP-1 cells; test: Binding and internalization of cell-surface expressed MSR1 in differentiated THP-1 cells; type: cell-based; settings: 10 μg/mL antibody
Method: Exemplary anti-MSR1 antibodies were assessed for their ability to bind and internalize MSR1 on MSR1-expressing cells.
The THP-1 cells were allowed to differentiate for 4 days at 37° C. in 5% CO2. […] The remaining two plates were incubated at 37° C. for 1 hour followed by fixation and staining for 20 minutes using a solution of 4% PFA+5 μM DRAQ5 diluted in PBS (internalization plates). After fixation, all plates were washed once with PBS. […] The remaining plates were incubated with PBS only. Confocal images were acquired on the Opera Phenix (Perkin Elmer) at 40× magnification. […] The total binding at 4° C. (RFU values of 4° C. unquenched wells), total binding at 37° C. (RFU values of 37° C. unquenched wells), the total internalized RFU, and % Internalization were determined for each antibody as shown in Table 14.
For all calculations, background fluorescence from unstained wells was subtracted from every well. Total internalized RFU was calculated as follows: Total RFU of 37° C. unquenched samples−Surface RFU at 37° C. Surface RFU is defined as unquenched RFU at 37° C.−quenched RFU at 37° C.)/QE. QE (quenching efficiency) is defined as: 1−(Total RFU of 4° C. quenched sample/Total RFU of 4° C. unquenched sample). The % Internalization was determined from the following formula: (Total internalized RFU at 37° C./Total RFU at 37° C.)*100.

Row | Molecule | % Internalization [%]
59 | B1 | 57.0
60 | B2 | 71.6
61 | B4 | 58.2

same assay, conditions: 10 μg/mL antibody, 4° C.

Row | Molecule | Total Binding at 4° C.
62 | B1 | 1930685
63 | B2 | 3702857
64 | B4 | 2518361

same assay, conditions: 10 μg/mL antibody, 37° C.

Row | Molecule | Total Binding at 37° C. | Total Internalized RFU [RFU]
65 | B1 | 6607625 | 3763127
66 | B2 | 5608380 | 4016378
67 | B4 | 5917858 | 3444330

system: parental HEK293 cells; test: Electrochemiluminescence antibody binding assay, non-specific binding control cells; type: cell-based, human; settings: not given

Row | Molecule | Ratio of 11 nM Antibody Binding Signal (RLU) to isotype control, HEK293
68 | B1 | 3
